{
  "source": "paper PMC5240998",
  "about": "“Identification and Characterization of Single-Chain Antibodies that Specifically Bind GI Noroviruses” (PLoS ONE, 2017)",
  "binders": {"B1": {"name": "NV-N-R5-1 phage-displayed 12-mer peptide (peptide)", "peptide": "LPSWYLAYQKII", "notes": "source: first reported by Rogers et al [18]"}},
  "target": "T1, GI.1 norovirus (Norwalk virus) virus-like particles (Norwalk virus (norovirus GI.1), UniProt Q83884 1-530)",
  "T1 construct": "major capsid protein VP1 (ORF2) of Norwalk virus, genotype GI.1, assembled into virus-like particles; also called GI.1 VLPs; GI.1 VLP; copies: 180",
  "T1 sequence": "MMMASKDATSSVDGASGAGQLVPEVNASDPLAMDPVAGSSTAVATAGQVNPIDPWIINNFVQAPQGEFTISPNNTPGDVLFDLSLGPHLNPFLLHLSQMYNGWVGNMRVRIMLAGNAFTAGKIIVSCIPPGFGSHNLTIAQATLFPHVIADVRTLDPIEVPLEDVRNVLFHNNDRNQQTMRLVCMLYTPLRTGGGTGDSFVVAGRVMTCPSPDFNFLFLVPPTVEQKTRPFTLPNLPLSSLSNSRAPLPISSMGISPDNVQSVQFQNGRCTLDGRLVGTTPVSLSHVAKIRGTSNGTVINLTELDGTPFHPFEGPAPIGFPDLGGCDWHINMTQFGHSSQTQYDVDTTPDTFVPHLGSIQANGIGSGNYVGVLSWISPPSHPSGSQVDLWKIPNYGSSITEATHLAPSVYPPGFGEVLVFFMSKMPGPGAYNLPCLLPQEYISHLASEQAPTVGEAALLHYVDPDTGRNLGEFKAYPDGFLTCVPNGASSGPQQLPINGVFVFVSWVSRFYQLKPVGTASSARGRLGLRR",
  "test": "ELISA; phage ELISA: VLPs, P-domain, S-domain (CT303) or BSA coated directly on the plate (VLPs 5 ug/mL in PBS); 5 × 10^10 cfu phage per well in 1% MPBS, 2 h RT; detected with anti-M13 HRP; signal as ratio to M13KE phage",
  "conditions": "both partners purified",
  "data": [
    {"binder": "B1", "values": [
      {"measurement": "binding result", "value": "binds"}
    ]}
  ]
}
